Experimental data reported in the supplement of paper PMC10567573.

B1: ZNF8 (parent)
chain: SLGRHKRTHTGEKPYTCSVCGKSF

Variants of: B1
Experiment: protein stability index of a GFP-peptide fusion (GPS, HEK-293T) (PSI 1-6); higher = more stable
Details: c terminus: a fixed tail appended
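Also: lentivirally expressed fusions sorted by FACS into six bins by GFP to DsRed ratio, PSI derived from sequencing read proportions per bin multiplied by bin number.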

Protein stability index: each site, then its substitutions
T10: I 2.77 | H 2.98
H9: E 3.06 | Y 3.15 | L 2.18 | P 2.96 | S 2.66 | Q 3.98 | N 2.67 | A 2.82 | W 2.83 | K 3.13 | M 2.59 | C 2.59 | T 2.78 | D 2.79 | V 2.47 | G 2.16 | I 2.84 | R 2.94 | F 2.09
P14: D 3.11 | M 2.72 | S 3.3 | A 2.23 | K 2.83 | I 3.47 | F 3.14 | T 3.77 | Y 3 | N 3.21 | V 3.18 | C 2.73 | H 2.89 | R 2.63 | E 2.8 | G 2.44 | L 3.73 | W 3.82 | Q 3
R7: A 2.42 | S 3.34 | F 2.83 | W 2.8 | H 3.65 | M 2.44 | D 3.02 | K 3 | P 2.98 | L 2.66 | G 4.28 | E 4.08 | C 4.55 | N 3.38 | Y 2.96 | V 3.37 | T 2.32 | I 3.39 | Q 2.98
E12: M 2.41 | K 2.79 | A 2.7 | F 1.74 | T 2.24 | D 2.64 | W 2.2 | S 2.64 | I 2.53 | Q 2.77 | R 3.19 | G 2.79 | N 3.1 | V 2.11 | H 2.52 | Y 3.15 | L 2.37 | P 3.28 | C 2.24
R4: S 3.19 | P 2.34 | Q 2.2 | F 2.57 | T 3.61 | G 3.44 | D 3 | C 4.3 | V 2.5 | E 4.09 | N 3.1 | M 2.5 | I 1.89 | W 2.13 | H 2.85
V19: Y 2.64 | A 2.36 | E 2.42 | M 2.7 | Q 3.45 | F 2.67 | T 2.75 | W 1.88 | K 2.93 | G 2.7 | I 2.79 | S 3.04 | P 3.06 | R 3.15 | D 3.5 | C 3.68 | N 3.47 | L 2.29 | H 3.06
K13: E 2.39 | F 2.2 | R 2.39 | L 1.99 | S 2.94 | M 2.4 | I 2.65 | H 2.96 | D 2.34 | C 2.88 | G 2.61 | P 2.71 | A 3.72 | N 2.48 | Y 2.31 | T 2.92 | W 3.06 | Q 2.71
T16: K 2.68 | W 2.33 | M 2.85 | V 3.01 | Y 2.61 | L 2.25 | H 2.77 | C 2.31 | I 2.75 | P 2.19 | D 2.81 | F 3.04 | Q 3.14 | E 2.98 | A 2.95 | S 2.51 | R 2.89 | N 2.97
Y15: A 2.58 | F 2.36 | D 2.46 | P 2.29 | Q 2.33 | L 2.44 | H 2.34 | V 2.44 | R 2.61 | T 2.3 | M 2.52 | S 2.9 | K 2.72 | N 2.33 | I 2.59 | C 3.79 | W 2.63 | G 2.45 | E 2.89
